Literature values in publication PMC7600996.

Target: RseA (Escherichia coli) (UniProt P0AFX7)
Sequence of UniProt P0AFX7 (P0AFX7 whole entry): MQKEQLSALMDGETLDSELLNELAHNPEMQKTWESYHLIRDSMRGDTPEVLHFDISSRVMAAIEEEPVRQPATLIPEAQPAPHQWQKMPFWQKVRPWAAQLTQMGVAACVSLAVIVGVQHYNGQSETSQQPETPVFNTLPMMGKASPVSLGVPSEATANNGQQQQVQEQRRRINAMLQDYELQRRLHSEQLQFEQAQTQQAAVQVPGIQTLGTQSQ

Kd: 0.2 nM
Substance: RpoE (sigma E) (from UniProt P0AGB6)
